Numbered stars: 1 amine (or outer) side, 2 acyl side, 3 side chain; on linkers, the order of the positions; unused ones are H or OH. Bridge positions count the residues as written; N and C are the ends. Square brackets hold non-standard residues; d marks the D form. Primed or numbered codes have the meaning given here. Ends that are not written are not given here. * marks the point of attachment. Phe(4-OMe)″ = 4-methoxy-phenylalanine, COc1ccc(C[C@H](N[*:1])C(=O)[*:2])cc1; Phe(4-CF3) = N[C@@H](Cc1ccc(C(F)(F)F)cc1)C(=O)O; Phe(4-COOH) = N[C@@H](Cc1ccc(C(=O)O)cc1)C(=O)O; Phe(4-tBu) = CC(C)(C)c1ccc(C[C@H](N)C(=O)O)cc1; Phe(2,4-Cl2) = N[C@@H](Cc1ccc(Cl)cc1Cl)C(=O)O; Phe(4-CN) = N#Cc1ccc(C[C@H](N)C(=O)O)cc1; Phe(4-F) = N[C@@H](Cc1ccc(F)cc1)C(=O)O; Oleoyl = CCCCCCCC/C=C\CCCCCCCC(=O)*; NMeR = CN[C@@H](CCCNC(=N)N)C(=O)O; Palmitoyl = CCCCCCCCCCCCCCCC(=O)*; β3hE = N[C@@H](CCC(=O)O)CC(=O)O; Pen = CC(C)(S)[C@H](N)C(=O)O; Isovaleryl = CC(C)CC(=O)*; Hexanoyl = CCCCCC(=O)*
Target: T1, human α4β7 integrin on cells (human, UniProt P13612 34-1032; P26010 20-798)
T1 construct: whole, on cells; also called α4β7 cell (Hu); RPMI8866 cells
Assay: RPMI8866 cell adhesion to MAdCAM-1

Binder	IC50 [nM]
Ac-[Pen][NMeR]SDTL[Pen][Phe(2,4-Cl2)][dE][dK]-NH2 (disulfide 1-7; not fully specified (residue 10); also: homodimer: two subunits joined by DIG linker, F(2,4-ci) as printed) [SEQ ID NO: 101]	> 50
Ac-[Pen][NMeR]SDTL[Pen][Phe(4-OMe)″][dE][dK]-NH2 (disulfide 1-7; not fully specified (residue 10); printed as (Ac Pen N-Me-R S D T L Pen F(4-OMe) e k NH2)2 DIG; also: homodimer: two subunits joined by DIG linker) [SEQ ID NO: 103]	> 25
Ac-[Pen][NMeR]SDTL[Pen][Phe(4-F)][dE][dK]-NH2 (disulfide 1-7; not fully specified (residue 10); printed as (Ac Pen N-Me-R S D T L Pen F(4-F) e k NH2)2 DIG, disulfide Pen-Pen; also: homodimer: two subunits joined by DIG linker) [SEQ ID NO: 107]	> 25
Ac-[Pen][NMeR]SDTL[Pen][Phe(4-CF3)][dE][dK]-NH2 (disulfide 1-7; not fully specified (residue 10); printed as (Ac Pen N-Me-R S D T L Pen F(4CF3) e k NH2)2 DIG, disulfide Pen-Pen; also: homodimer: two subunits joined by DIG linker) [SEQ ID NO: 122]	> 50
Ac-[Pen][NMeR]SDTL[Pen][Phe(4-tBu)][β3hE][dK](Oleoyl) (disulfide 1-7) [SEQ ID NO: 174]	> 1000

Next, values leading:

IC50 [nM]	Binder
> 10	Ac-[Pen][NMeR]SDTL[Pen][Phe(4-tBu)][β3hE][dK](Isovaleryl) (disulfide 1-7) [SEQ ID NO: 171]
965	Ac-[Pen][NMeR]SDTL[Pen][Phe(4-tBu)][β3hE][dK](Palmitoyl) (disulfide 1-7) [SEQ ID NO: 172]
≤ 10	Ac-[Pen][NMeR]SDTL[Pen][Phe(4-CN)][β3hE][dK]-NH2 (disulfide 1-7; not fully specified (residue 10); printed as (Ac Pen N-Me-R S D T L Pen F(4-CN) b-H-E k NH2)2 DIG, disulfide Pen-Pen; also: homodimer, two subunits joined by DIG linker) [SEQ ID NO: 139]
≤ 10	Ac-[Pen][NMeR]SDTL[Pen][Phe(4-tBu)][dE][dK]-NH2 (disulfide 1-7; not fully specified (residue 10); printed as (Ac Pen N-Me-R S D T L Pen F(4tBu) e k NH2)2 DIG, disulfide Pen-Pen; also: homodimer: two subunits joined by DIG linker) [SEQ ID NO: 106]
> 10	Ac-[Pen][NMeR]SDTL[Pen][Phe(4-tBu)][β3hE][dK](Hexanoyl) (disulfide 1-7) [SEQ ID NO: 170]
> 10	Ac-[Pen][NMeR]SDTL[Pen][Phe(4-tBu)][β3hE][dK](4,4,4‑trifluorobutyryl) (disulfide 1-7) [SEQ ID NO: 169]
≤ 10	Ac-[Pen][NMeR]SDTL[Pen][Phe(4-COOH)][dE][dK]-NH2 (disulfide 1-7; not fully specified (residue 10); printed as (Ac Pen N-Me-R S D T L Pen F(4-COOH) e k NH2)2 DIG; also: homodimer: two subunits joined by DIG linker) [SEQ ID NO: 100]

From US20220162261A1 (published 2022)
